# Biological target: M6P receptors expressed on MEF-1 fibroblasts
# Assay: cell-based or functional assay
row,Binder,receptor mediated endocytosis in MEF-1 cells: specific activity in cell homogenate relative to unmodified recombinant sulfamidase (% of unmodified recombinant sulfamidase)
1,"sulfamidase (SEQ ID NO:2) chemically modified according to the known method (WO 2008/109677): 20 mM sodium meta-periodate 0 °C 6.5 h, dialysis, 100 mM sodium … (enzyme, N-glycans at N(21), N(131), N(244), N(393) of SEQ ID NO:1 disrupted by periodate oxidation and borohydride reduction; FGly50 about 56% converted to Ser50; methionine 184 and methionine 443 almost completely oxidized) GSRPRNALLLLADDGGFESGAYNNSAIATPHLDALARRSLLFRNAFTSVSSCSPSRASLLTGLPQHQNGMYGLHQDVHHFNSFDKVRSLPLLLSQAGVRTGIIGKKHVGPETVYPFDFAYTEENGSVLQVGRNITRIKLLVRKFLQTQDDRPFFLYVAFHDPHRCGHSQPQYGTFCEKFGNGESGMGRIPDWTPQAYDPLDVLVPYFVPNTPAARADLAAQYTTVGRMDQGVGLVLQELRDAGVLNDTLVIFTSDNGIPFPSGRTNLYWPGTAEPLLVSSPEHPKRWGQVSEAYVSLLDLTPTILDWFSIPYPSYAIFGSKTIHLTGRSLLPALEAEPLWATVFGSQSHHEVTMSYPMRSVQHRHFRLVHNLNFKMPFPIDQDFYVSPTFQDLLNRTTAGQPTGWYKDLRHYYYRARWELYDRSRDPHETQNLATDPRFAQLLEMLRDQLAKWQWETHDPWVCAPDGVLEEKLSPQCQPLHNEL",< 10
2,"sulfamidase (SEQ ID NO:2) chemically modified according to new method 1: 20 mM sodium meta-periodate 0 °C 120 min, 50 mM sodium borohydride 0 °C 120 min (enzyme, N-glycans at N(21), N(131), N(244), N(393) of SEQ ID NO:1 disrupted by periodate oxidation and borohydride reduction; FGly50 about 45% converted to Ser50) GSRPRNALLLLADDGGFESGAYNNSAIATPHLDALARRSLLFRNAFTSVSSCSPSRASLLTGLPQHQNGMYGLHQDVHHFNSFDKVRSLPLLLSQAGVRTGIIGKKHVGPETVYPFDFAYTEENGSVLQVGRNITRIKLLVRKFLQTQDDRPFFLYVAFHDPHRCGHSQPQYGTFCEKFGNGESGMGRIPDWTPQAYDPLDVLVPYFVPNTPAARADLAAQYTTVGRMDQGVGLVLQELRDAGVLNDTLVIFTSDNGIPFPSGRTNLYWPGTAEPLLVSSPEHPKRWGQVSEAYVSLLDLTPTILDWFSIPYPSYAIFGSKTIHLTGRSLLPALEAEPLWATVFGSQSHHEVTMSYPMRSVQHRHFRLVHNLNFKMPFPIDQDFYVSPTFQDLLNRTTAGQPTGWYKDLRHYYYRARWELYDRSRDPHETQNLATDPRFAQLLEMLRDQLAKWQWETHDPWVCAPDGVLEEKLSPQCQPLHNEL",< 10
3,"sulfamidase (SEQ ID NO:2) chemically modified according to new method 2: 20 mM sodium meta-periodate 0 °C 120 min, 10 mM sodium borohydride 0 °C 120 min (enzyme, N-glycans of SEQ ID NO:1 sites disrupted by periodate oxidation and borohydride reduction; FGly50 about 11.5% converted to Ser50) GSRPRNALLLLADDGGFESGAYNNSAIATPHLDALARRSLLFRNAFTSVSSCSPSRASLLTGLPQHQNGMYGLHQDVHHFNSFDKVRSLPLLLSQAGVRTGIIGKKHVGPETVYPFDFAYTEENGSVLQVGRNITRIKLLVRKFLQTQDDRPFFLYVAFHDPHRCGHSQPQYGTFCEKFGNGESGMGRIPDWTPQAYDPLDVLVPYFVPNTPAARADLAAQYTTVGRMDQGVGLVLQELRDAGVLNDTLVIFTSDNGIPFPSGRTNLYWPGTAEPLLVSSPEHPKRWGQVSEAYVSLLDLTPTILDWFSIPYPSYAIFGSKTIHLTGRSLLPALEAEPLWATVFGSQSHHEVTMSYPMRSVQHRHFRLVHNLNFKMPFPIDQDFYVSPTFQDLLNRTTAGQPTGWYKDLRHYYYRARWELYDRSRDPHETQNLATDPRFAQLLEMLRDQLAKWQWETHDPWVCAPDGVLEEKLSPQCQPLHNEL",< 10

# From patent publication US20160230155A1
